Test results from PMC4103810, “Flexibility of PCNA-Protein Interface Accommodates Differential Binding Partners” (PLoS ONE, 2014).
No end group written: not given here. *: point of attachment. FITC = O=C1OC2(c3ccc(O)cc3Oc3cc(O)ccc32)c2ccc(NC(=S)*)cc21; Ahx = NCCCCCC(=O)O

B1: Abl 12-mer PIP Box peptide (peptide)
peptide: PGQRSISLRYEG
notes: PIP Box stretch of Abl (ABL1), lying in the SH2 domain; Made on CLEAR Amide resin, so the C-terminus is probably an amide; source: synthetic peptide (solid phase, HPLC purified)
B2: Akt 12-mer reverse PIP Box peptide (peptide)
peptide: HRFFAGIVWQHV
notes: reverse PIP Box stretch of Akt, found by screening the human genome; Made on CLEAR Amide resin, so the C-terminus is probably an amide; source: synthetic peptide (solid phase, HPLC purified)
B3: Akt 12-mer reverse PIP Box peptide mimic (peptide)
peptide: HRFFAGIVWQHV
notes: 12-mer modeled after the reverse PIP Box of Akt, found by a screen of the human genome; Synthesised on CLEAR Amide resin, so the C-terminus is probably an amide (surmised); also called Akt peptide; reverse-PIP Box Akt peptide; source: synthetic peptide (solid phase, HPLC purified)
B4: PI3K (p85α subunit) 12-mer PIP Box peptide mimic (peptide)
peptide: TLQYLLKHFFKL
notes: 12-mer modeled after the PIP Box of PI3-kinase p85α, found by a screen of the human genome; Synthesised on CLEAR Amide resin, so the C-terminus is probably an amide (surmised); also called p85α peptide; PI3-kinase (p85α regulatory domain); source: synthetic peptide (solid phase, HPLC purified)
B5: PI3K (p85α subunit) 12-mer PIP Box peptide (peptide)
peptide: TLQYLLKHFFKL
notes: PIP Box stretch of the PI3-kinase p85α regulatory subunit (PIK3R1), found by screening the human genome; Made on CLEAR Amide resin, so the C-terminus is probably an amide; also called PI3-kinase (p85α regulatory domain); source: synthetic peptide (solid phase, HPLC purified)
B6: Abl 12-mer PIP Box peptide mimic (peptide)
peptide: PGQRSISLRYEG
notes: Synthesised on CLEAR Amide resin, so the C-terminus is probably an amide (surmised); also called Abl peptide; source: synthetic peptide (solid phase, HPLC purified)
B7: N-terminal fluorescein isothiocyanate (FITC) labeled PL peptide (peptide)
peptide: {FITC-Ahx}-SAVLQKKITDYFHPKK
notes: Synthesised on CLEAR Amide resin, so the C-terminus is probably an amide (surmised); also called FITC-PL peptide; FITC-PL; source: synthetic peptide (solid phase, HPLC purified)
B8: DNA polymerase δ (p66 subunit) 12-mer PIP Box peptide mimic (peptide)
peptide: NRQVSITGFFQR
notes: 12-mer modeled after the PIP Box of the p66 subunit of DNA polymerase δ; Synthesised on CLEAR Amide resin, so the C-terminus is probably an amide (surmised); also called p66 peptide; source: synthetic peptide (solid phase, HPLC purified)
B9: DNA polymerase δ (p66 subunit) 12-mer PIP Box peptide (peptide)
peptide: NRQVSITGFFQR
notes: PIP Box stretch of the p66 subunit of DNA polymerase δ (POLD3); Made on CLEAR Amide resin, so the C-terminus is probably an amide; source: synthetic peptide (solid phase, HPLC purified)
B10: unlabeled POGO-ligase (PL) peptide (peptide)
peptide: SAVLQKKITDYFHPKK
notes: Synthesised on CLEAR Amide resin, so the C-terminus is probably an amide (surmised); also called control PL peptide; source: synthetic peptide (solid phase, HPLC purified)
B11: p21 12-mer PIP Box peptide mimic (peptide)
peptide: RRQTSMTDFYHS
notes: 12-mer modeled after the C-terminal PIP Box of the tumor suppressor p21; Synthesised on CLEAR Amide resin, so the C-terminus is probably an amide (surmised); also called p21 peptide; p21 12-amino acid peptide; source: synthetic peptide (solid phase, HPLC purified)

Assays:
recombinant PCNA protein [1] = molecular target: T1, recombinant PCNA protein (Homo sapiens, UniProt P12004); test: Fluorescence polarization competition assay (displacement of FITC-PL peptide from PCNA); type: binding; design: (His)6 (N); TEV protease recognition site (N); made in house; host or cells: E. coli BL21(DE3)
T1 sequence (P12004 whole entry): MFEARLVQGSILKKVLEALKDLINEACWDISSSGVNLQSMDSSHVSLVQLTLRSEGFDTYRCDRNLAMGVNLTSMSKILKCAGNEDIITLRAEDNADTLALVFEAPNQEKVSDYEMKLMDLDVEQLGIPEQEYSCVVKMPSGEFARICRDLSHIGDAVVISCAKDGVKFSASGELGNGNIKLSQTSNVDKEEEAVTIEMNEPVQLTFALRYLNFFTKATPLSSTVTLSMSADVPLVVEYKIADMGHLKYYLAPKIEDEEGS
Method: (3) and represented as mean ± standard error of mean (Y). Fraction of the FITC-PL peptide bound (Y) was plotted as a function of the logarithm of the 12 amino acid peptide antagonist concentration (X), and IC50 values were determined by fitting the data to Eq. […] Anisotropy values were also analyzed using complete and incomplete binding models without non-specific effects as outlined in Roehrl et al..

[2] = Aggregation observed in the fluorescence polarization competition assay; type: physicochemical; conditions: FP competition assay, binding buffer; result in words
Method: Competition assays were analyzed by fluorescence polarization on a DTX880 Multimode plate reader (Beckman Coulter) using an excitation of 485 nm and an emission filter at 535 nm at 30°C. Anisotropy values (N = 4) were statistically evaluated using Grubbs' test for outliers at a significance level of 0.05 and converted to fraction of FITC-PL peptide bound (fb) using Eq. (3) and represented as mean ± standard error of mean (Y).

recombinant PCNA protein [3] = molecular target: T1, recombinant PCNA protein; test: ITC; conditions: cited from earlier work
recombinant PCNA protein [4] = molecular target: T2, recombinant PCNA protein (human, UniProt P12004 1-261); test: fluorescence polarisation; competition: increasing unlabeled 12-mer peptide against 50 nM N-terminal FITC-PL peptide and 1 µM PCNA (monomer concentration); 25 mM HEPES pH 7.4, 10% glycerol, 0.01% Triton X-100; 30 min at room temperature, read at 30°C; fraction of FITC-PL bound fitted to the complete (Eq. 6) or incomplete (Eq. 7, four-state) competition model of Roehrl et al.; estimated dissociation constants; conditions: both partners purified
T2 construct: PCNA (proliferating cell nuclear antigen), human; The vector has a TEV protease site after the (His)6 tag, and no cleavage is described; also called (His)6-PCNA; source: E. coli BL21(DE3), purified (Ni-NTA, dialysis)
T2 sequence (P12004 whole entry): as above

[5] = molecular target: T3, recombinant PCNA protein (N-terminal (His)6-PCNA) (human, UniProt P12004 1-261); test: fluorescence polarisation; competition: increasing unlabeled peptide with 50 nM FITC-PL peptide and 1 µM PCNA (monomer concentration); 25 mM HEPES pH 7.4, 10% glycerol, 0.01% Triton X-100; 30 min at room temperature, read at 30°C; Ki from a modified Cheng-Prusoff equation; conditions: both partners purified
T3 construct: PCNA, human; amplified by PCR from a template plasmid (Genecoepia) into pEV-L8, which has an N-terminal (His)6-tag and a TEV protease recognition site; No TEV cleavage is described; also called human PCNA; source: E. coli BL21(DE3), purified (Ni-NTA)
T3 sequence (P12004 whole entry): as above

[6] = molecular target: T3, recombinant PCNA protein (N-terminal …); test: fluorescence polarisation; direct binding: increasing recombinant PCNA (monomer concentration) added to 50 nM FITC-PL peptide; 25 mM HEPES pH 7.4, 10% glycerol, 0.01% Triton X-100; 30 min at room temperature, read at 30°C; fit with a Hill slope; conditions: both partners purified
[7] = molecular target: T3, recombinant PCNA protein (N-terminal …); test: fluorescence polarisation; competition: increasing unlabeled peptide with 50 nM FITC-PL peptide and 1 µM PCNA (monomer concentration); 25 mM HEPES pH 7.4, 10% glycerol, 0.01% Triton X-100; 30 min at room temperature, read at 30°C; Ki from a modified Cheng-Prusoff equation; conditions: both partners purified; remark: listed apart in the source

Molecule	IC50 [5] [µM]	Ki [5] [µM]	fb at [peptide]max (fraction of FITC-PL bound) [5]	other results
NRQVSITGFFQR [DNA polymerase δ (p66 subunit), 12-amino acid PIP Box peptide modeled after the p66 subunit of DNA polymerase δ]	–	–	–	Hill Slope (recombinant PCNA protein [1]; Hill slope n of the fit to Eq. (4), 50 nM FITC-PL, 1 µM PCNA (monomer)): −1.2±0.2
GVQRNHETAFQG [Mcl-1]	–	–	–	aggregation of the tracer at higher concentrations [2]: not observed; binding to recombinant PCNA in the competition assay (recombinant PCNA protein [1]; result in words): did not bind
p21 12-mer PIP box peptide PIP box (from UniProt P38936)	–	–	–	Kd (recombinant PCNA protein [3]): 0.64 µM
RRQTSMTDFYHS-NH2 [p21]	–	–	–	Kd (recombinant PCNA protein [1]; estimated dissociation constant of competitive ligand-PCNA interaction, Roehrl et al. binding models, Eq. (6)/(7), read-out: Kd2): 0.615 ± 0.251 µM; Kd (recombinant PCNA protein [1]; incomplete competition model (four state), Roehrl et al., Eq. (7), read-out: Kd3): 3.1 ± 0.2 µM
B1	–	–	–	Kd (recombinant PCNA protein [4]): 52.9 ± 14.7 µM
B2	–	–	–	Kd (recombinant PCNA protein [4]): 2 ± 0.4 µM
B3	8.5 ± 4.2	3.4	0.06	–
B4	7.5 ± 0.3	2.9	0	–
B5	–	–	–	Kd (recombinant PCNA protein [4]): 1.6 ± 0.6 µM
B6	71.3 ± 12.1	30.4	0.1	–
B7	–	–	–	Kd [6]: 0.76 ± 0.019 µM
B8	67.9 ± 15.8	28.9	0	–
B9	–	–	–	Kd (recombinant PCNA protein [4]): 20.8 ± 4.4 µM
B10	0.145 ± 0.013	0.136	0	IC50 [7]: 0.144 ± 0.013 µM
B11	1.8 ± 0.5	0.477	0.25	–
